Blank lines part the entries; values can stand above or below the binder they belong to.
B1: PSMGFR minus 10 amino acids from the C-terminus (peptide)
peptide: GTINVHDVETQFNQYKTEAASRYNLTISDVSVSDV
notes: also called C-10; C-10 PSMGFR

Key:
[1] = target: T1, dimeric NME1 (human, UniProt P15531 1-152, limits assumed); assay: ELISA, peptide immobilised on plate (FIG. 2D)
T1 construct: Used in dimer form; also called NM23-H1 dimers; dimeric NM23-H1
Method: (§1) FIGS. 2A-2F show results of ELISA assays. MUC1* peptides PSMGFR, PSMGFR minus 10 amino acids from the N-terminus aka N-10, or PSMGFR minus 10 amino acids from the C-terminus, aka C-10 are immobilized on the plate and the following are assayed for binding: NME7-AB (A), MN-C2 monoclonal antibody (B), MN-E6 monoclonal antibody (C), or dimeric NME1 (D). […] MUC1* peptides PSMGFR minus 10 amino acids from the N-terminus aka N-10, or PSMGFR minus 10 amino acids from the C-terminus, aka C-10, are immobilized on the plate and the following are assayed for binding: MN-C3 (E) and MN-C8 (F).

[2] = target: T2, NME7-AB (human, UniProt Q9Y5B8 92-376); assay: ELISA, peptide immobilised on plate (FIG. 2A)
T2 construct: also called NM23-H7
T2 sequence: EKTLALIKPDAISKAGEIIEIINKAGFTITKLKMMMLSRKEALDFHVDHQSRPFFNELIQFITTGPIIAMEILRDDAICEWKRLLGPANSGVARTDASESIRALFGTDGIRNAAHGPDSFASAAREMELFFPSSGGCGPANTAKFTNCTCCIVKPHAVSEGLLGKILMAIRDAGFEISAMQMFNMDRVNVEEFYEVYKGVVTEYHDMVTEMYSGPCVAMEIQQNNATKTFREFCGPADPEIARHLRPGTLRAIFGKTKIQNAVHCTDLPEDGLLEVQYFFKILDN
Method: as §1

[3] = target: T3, PSMGFR minus 10 amino acids from the N-terminus; assay: competitive ELISA, peptide on plate (FIG. 3C)
T3 construct: also called N-10; N-10 PSMGFR
T3 peptide: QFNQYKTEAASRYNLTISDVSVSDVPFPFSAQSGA
Method: FIGS. 3A-3C show results of competitive ELISA assays. The PSMGFR MUC1* peptide is immobilized on the plate and dimeric NM23-H1, aka NME1, is added either alone or after the MN-E6 antibody has been added (A). The same experiment was performed wherein NM23-H7, NME7-AB, is added alone or after MN-E6 has been added (B). […] In a similar experiment (C), PSMGFR or PSMGFR minus 10 amino acids from the N-terminus, aka N-10, is immobilized on the plate. Dimeric NM23-H1 is then added. Anti-MUC1* antibodies MN-E6, MN-C2, MN-C3 or MN-C8 are then tested for their ability to compete off the NM23-H1.

[4] = target: T4, PSMGFR peptide (Primary Sequence of the MUC1 Growth Factor Receptor); assay: ELISA, peptide on plate (FIG. 2B)
T4 construct: Immobilised on ELISA plates or attached to 1 um or 4.5 um beads; also called MUC1* peptide; MUC1* PSMGFR peptide
T4 peptide: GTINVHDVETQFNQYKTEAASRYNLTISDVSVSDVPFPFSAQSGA
Method: as §1

[5] = target: T4, PSMGFR peptide (Primary Sequence of the …); assay: ELISA, surface coated with PSMGFR peptide
Method: Humanized MN-C2 scFv is then incubated with the surface, washed and detected according to standard methods.

[6] = target: T4, PSMGFR peptide (Primary Sequence of the …); assay: ELISA, peptide on plate (FIG. 2C)
Method: as §1

[7] = target: T3, PSMGFR minus 10 amino acids from the …; assay: selection screens
[8] = target: T4, PSMGFR peptide (Primary Sequence of the …); assay: ELISA, PSMGFR on surface (FIG. 12)
[9] = target: T4, PSMGFR peptide (Primary Sequence of the …); assay: ELISA, peptide immobilised on plate (FIG. 22A)
Method: (§2) FIGS. 22A-22C show graphs of ELISAs wherein the assay plate surface was immobilized with either PSMGFR peptide, PSMGFR minus 10 amino acids from the N-terminus or minus 10 amino acids from the C-terminus. The MN-C3 antibody variants were then assayed for binding to the various MUC1* peptides. A) Purified mouse monoclonal MN-C3 antibody; B) Impure humanized MN-C3 antibody; and C) the humanized MN-C3 scFv-Fc. ELISAs show binding to the PSMGFR peptide as well as to certain deletion peptides.

[10] = target: B1; assay: ELISA, N-10 and C-10 peptides on plate (FIG. 2E)
Method: as §1

[11] = target: T4, PSMGFR peptide (Primary Sequence of the …); assay: ELISA, peptide immobilised on plate (FIG. 22B)
Method: as §2

T1 sequence (P15531 whole entry): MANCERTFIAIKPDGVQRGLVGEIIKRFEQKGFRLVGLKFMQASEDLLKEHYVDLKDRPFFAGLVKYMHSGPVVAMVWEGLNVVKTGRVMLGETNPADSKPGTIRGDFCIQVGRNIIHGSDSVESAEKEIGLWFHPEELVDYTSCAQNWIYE

Binder: B1
binding result [1]: no binding
binding result [2]: no binding

binding result [3]: binds
binding result [4]: binds
B2: mouse monoclonal antibody MN-C2 (antibody, V domains shown)
VH: EVQLEESGGGLVKPGGSLKLSCAASGFTFSGYAMSWVRQTPEKRLEWVATISSGGTYIYYPDSVKGRFTISRDNAKNTLYLQMSSLRSEDTAMYYCARLGGDNYYEYFDVWGAGTTVTVSS
VL: DIVITQSTASLGVSLGQRATISCRASKSVSTSGYSYMHWYQQRPGQPPKLLIYLASNLESGVPARFSGSGSGTDFTLNIHPVEEEDAATYYCQHSRELPFTFGGGTKLEIKR
notes: also called Min-C2

EC50 [5]: ~333 nM
B3: humanized MN-C2 scFv (scFv, V domains shown, not shown: small tags and cut ends)
VH: EVQLVESGGGLVKPGGSLRLSCAASGFTFSGYAMSWVRQAPGKGLEWVSTISSGGTYIYYPDSVKGRFTISRDNAKNSLYLQMNSLRAEDTAVYYCARLGGDNYYEYFDVWGKGTTVTVSS
VL: DIVLTQSPASLAVSPGQRATITCRASKSVSTSGYSYMHWYQQKPGQPPKLLIYLASNLESGVPARFSGSGSGTDFTLTINPVEANDTANYYCQHSRELPFTFGGGTKVEIKR
notes: also called huMN-C2 scFv; hMN-C2 scFv

binding result [6]: binds
binding result [7]: binds
B4: mouse monoclonal antibody MN-E6 (antibody, V domains shown)
VH: EVKVVESGGDLVKPGGSLKLSCVVSGFTFSRYGMSWVRQTPGKRLEWVATISGGGTYIYYPDSVKGRFTISRDNAKNTLYLQMSSLKSEDTAMYHCTRDNYGRNYDYGMDYWGQGTSVTVSS
VL: QIVLTQSPAIMSASPGEEVTLTCSATSSVSYIHWFQQRPGTSPKLWIYSTSNLASGVPVRFSGSGYGTSYSLTISRMEAEDAATYYCQQRSSSPFTFGSGTKLEIK
notes: also called Min-E6; parent MN-E6 antibody

binding result [8]: binds
B5: humanized MN-E6 scFv (scFv, V domains shown, not shown: small tags and cut ends)
VH: EVQLVESGGGLVKPGGSLRLSCAASGFTFSRYGMSWVRQAPGKRLEWVSTISGGGTYIYYPDSVKGRFTISRDNAKNTLYLQMNSLRAEDTAVYYCTRDNYGRNYDYGMDYWGQGTLVTVSS
VL: EIVLTQSPATLSLSPGERATLTCSATSSVSYIHWYQQRPGQSPRLLIYSTSNLASGIPARFSGSGSGSDYTLTISSLEPEDFAVYYCQQRSSSPFTFGSGTKVEIK
notes: also called hu MN-E6 scFv

binding result [9]: binds
binding result [3]: binds
binding result [10]: binds
B6: mouse monoclonal antibody MN-C3 (antibody, V domains shown)
VH: QVQLQQSGPELVRPGVSVKISCKGSGYRFTDYAMNWVKQSHAKSLEWIGVISTFSGNTNFNQKFKGKATMTVDKSSSTAYMELARLTSEDSAMYYCARSDYYGPYFDYWGQGTTLTVSS
VL: DVLMTQTPLSLPVSLGDQASISCRSSQTIVHSNGNTYLEWYLQKPGQSPKLLIYKVSNRFSGVPDRFSGSGSGTDFTLKINRVEAEDLGVYYCFQGSHVPFTFGSGTKLEIK
notes: also called Min-C3

binding result [11]: binds
B7: humanized MN-C3 antibody (impure preparation) (antibody, V domains shown)
VH: QVQLVQSGAEVKKPGASVKVSCKASGYTFTDYAMNWVRQAPGQGLEWMGVISTFSGNTNFNQKFKGRVTMTTDTSTSTAYMELRSLRSDDTAVYYCARSDYYGPYFDYWGQGTTLTVSS
VL: DIVMTQTPLSLSVTPGQPASISCRSSQTIVHSNGNTYLEWYLQKPGQSPQLLIYKVSNRFSGVPDRFSGSGSGTDFTLKISRVEAEDVGVYYCFQGSHVPFTFGGGTKVEIKR
notes: also called Impure humanized MN-C3 antibody

Source: patent US20190290692A1 (MINERVA BIOTECHNOLOGIES, published 2019)
